Results on 29 molecules are retold here after US20220324909A1 (COHBAR, published 2022).

Sequences and labels used below:
T1: Apelin Receptor (APJ) stably overexpressed in CHO-K1 AGTRL1 Gi cells (human, UniProt P35414 1-380)
T1 sequence (looked up): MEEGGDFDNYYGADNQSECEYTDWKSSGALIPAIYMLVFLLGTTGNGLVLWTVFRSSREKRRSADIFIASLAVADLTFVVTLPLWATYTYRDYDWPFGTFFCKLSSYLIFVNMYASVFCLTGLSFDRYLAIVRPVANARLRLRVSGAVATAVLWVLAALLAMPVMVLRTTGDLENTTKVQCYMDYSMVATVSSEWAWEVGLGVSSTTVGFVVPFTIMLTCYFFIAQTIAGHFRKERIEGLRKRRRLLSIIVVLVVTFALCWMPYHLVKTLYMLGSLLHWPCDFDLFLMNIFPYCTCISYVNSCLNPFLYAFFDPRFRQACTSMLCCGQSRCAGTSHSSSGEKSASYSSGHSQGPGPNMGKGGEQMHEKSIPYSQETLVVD

Non-standard residues stand in square brackets, D forms with d. Primed or numbered codes have the meaning given here. No end group written: not given here. PEG12(3) = not defined here

The first experiment deals with ProLink tagged human APJ (Apelin Receptor) in CHO-K1 AGTRL1 β-Arrestin cells (human, UniProt P35414 1-380). The experiment can be described thus: cell-based or functional assay.
As to RRMMGMVFQSLSG[dA] [SEQ ID NO 17], the “β-Arrestin recruitment, Percent of Apelin-13 Control Activity (10 µM peptide)” value (shortened to “β-Arrestin recruitment, Percent”) was 10 % of Apelin-13 control. In the case of RRMMGMVFQS [SEQ ID NO 59], the “β-Arrestin recruitment, Percent” value is 0 % of Apelin-13 control. Turning to KRRMMGMVFQCLCGA ((PEG12) on the N-terminal K (position 1); (dA) D-alanine at position 15) [SEQ ID NO 20], the “β-Arrestin recruitment, Percent” value is 1 % of Apelin-13 control. Regarding RMMGMVFQS [SEQ ID NO 52], the “β-Arrestin recruitment, Percent” value was 0 % of Apelin-13 control. Same read-out and setting: the figure for RRMMGMVFQ [SEQ ID NO 58] is 0 % of Apelin-13 control; for RRMMGMVFQCLSG[dA] [SEQ ID NO 16] it is 0 % of Apelin-13 control; for RRMGYQCLEG[dA] [SEQ ID NO 28] it is -1 % of Apelin-13 control. The same measure, in the same setting: the value for RMMGMVFQSLCG[dA] [SEQ ID NO 54] was 1 % of Apelin-13 control; that for RRMVYQCLCG[dA] (cysteine pairing not given here) [SEQ ID NO 22] was 0 % of Apelin-13 control; that for Ac-RRMMGMVFQSLCG[dA] [SEQ ID NO 61] was 5 % of Apelin-13 control. For the molecule RRMVYQCLEG[dA] [SEQ ID NO 24], the “β-Arrestin recruitment, Percent” value is -1 % of Apelin-13 control. Same read-out and setting: the value for RREMVYQCLEG[dA] [SEQ ID NO 26] was 0 % of Apelin-13 control; that for RRXXGXVFQCLCGA ((Nle) norleucine at positions 3, 4 and 6; (dA) D-alanine at position 14) [SEQ ID NO 18] was 1 % of Apelin-13 control.

For the molecule RRMMGM [SEQ ID NO 55], the “β-Arrestin recruitment, Percent” value is 1 % of Apelin-13 control. The same measure, in the same setting: the value for RRMMGMVYQCLEG[dA] [SEQ ID NO 29] was 0 % of Apelin-13 control; that for RRMMGMVFQSLCG[dA]-NH2 [SEQ ID NO 62] was 2 % of Apelin-13 control.

As to RRMMGMVF [SEQ ID NO 57], the “β-Arrestin recruitment, Percent” value is 0 % of Apelin-13 control.

Take RRMVFQCLCG[dA] (cysteine pairing not given here) [SEQ ID NO 19]: the “β-Arrestin recruitment, Percent” value is 1 % of Apelin-13 control. RMMGMVFQ [SEQ ID NO 51]: the “β-Arrestin recruitment, Percent” value is 0 % of Apelin-13 control. For the molecule RMMGMVFQSL [SEQ ID NO 53], the “β-Arrestin recruitment, Percent” value is 1 % of Apelin-13 control. As to RRMAYQCLEG[dA] [SEQ ID NO 27], the “β-Arrestin recruitment, Percent” value was -1 % of Apelin-13 control. As for Ac-RRMMGMVFQSLCG[dA]-NH2 [SEQ ID NO 63], the “β-Arrestin recruitment, Percent” value was 9 % of Apelin-13 control. For the molecule RMMGMVF [SEQ ID NO 50], the “β-Arrestin recruitment, Percent” value was 0 % of Apelin-13 control.

On to RREMVYQCLCG[dA] (cysteine pairing not given here) [SEQ ID NO 25], for which the “β-Arrestin recruitment, Percent” value was -1 % of Apelin-13 control. Consider RRMMGMVFQCLCG[dA]K(PEG12(3)) (cysteine pairing not given here) [SEQ ID NO 21], for which the “β-Arrestin recruitment, Percent” value is 1 % of Apelin-13 control. For the molecule RRMMGMVFQSL [SEQ ID NO 60], the “β-Arrestin recruitment, Percent” value was 0 % of Apelin-13 control. As to RRMVFQCLEG[dA] [SEQ ID NO 23], the “β-Arrestin recruitment, Percent” value was 0 % of Apelin-13 control. Turning to RRMMGMVAQCLEG[dA] [SEQ ID NO 30], the “β-Arrestin recruitment, Percent” value was -1 % of Apelin-13 control. On to RRMMGMV [SEQ ID NO 56], for which the “β-Arrestin recruitment, Percent” value was 0 % of Apelin-13 control.

Another experiment addresses T1, Apelin Receptor (APJ) stably …. The experiment can be described thus: cell-based or functional assay.
With RRMMGMVFQSLSG[dA] [SEQ ID NO 17], the “cAMP levels, Percent of Pyr-Apelin-13 Control Activity (10 µM peptide, 10 µM forskolin)” value (“cAMP levels, Percent” for short) was 26 % of Pyr-Apelin-13 control. Take RRMMGMVFQS [SEQ ID NO 59]: the “cAMP levels, Percent” value was -2 % of Pyr-Apelin-13 control. In the case of KRRMMGMVFQCLCGA ((PEG12) on the N-terminal K (position 1); (dA) D-alanine at position 15) [SEQ ID NO 20], the “cAMP levels, Percent” value is 37 % of Pyr-Apelin-13 control. For the molecule RMMGMVFQS [SEQ ID NO 52], the “cAMP levels, Percent” value is 15 % of Pyr-Apelin-13 control. On to RRMMGMVFQ [SEQ ID NO 58], for which the “cAMP levels, Percent” value was 5 % of Pyr-Apelin-13 control. Consider RRMGYQCLEG[dA] [SEQ ID NO 28], for which the “cAMP levels, Percent” value is 3 % of Pyr-Apelin-13 control. Still for that read-out and setting: the figure for RMMGMVFQSLCG[dA] [SEQ ID NO 54] is 20 % of Pyr-Apelin-13 control; for RRMVYQCLCG[dA] (cysteine pairing not given here) [SEQ ID NO 22] it is 62 % of Pyr-Apelin-13 control; for Ac-RRMMGMVFQSLCG[dA] [SEQ ID NO 61] it is 1 % of Pyr-Apelin-13 control. Regarding RRMVYQCLEG[dA] [SEQ ID NO 24], the “cAMP levels, Percent” value was 16 % of Pyr-Apelin-13 control. The same measure, in the same setting: the figure for RREMVYQCLEG[dA] [SEQ ID NO 26] is 29 % of Pyr-Apelin-13 control. Regarding RRXXGXVFQCLCGA ((Nle) norleucine at positions 3, 4 and 6; (dA) D-alanine at position 14) [SEQ ID NO 18], the “cAMP levels, Percent” value was 30 % of Pyr-Apelin-13 control. Consider RRMMGM [SEQ ID NO 55], for which the “cAMP levels, Percent” value was -7 % of Pyr-Apelin-13 control. Take RRMMGMVYQCLEG[dA] [SEQ ID NO 29]: the “cAMP levels, Percent” value is 21 % of Pyr-Apelin-13 control. For RRMMGMVFQSLCG[dA]-NH2 [SEQ ID NO 62], the “cAMP levels, Percent” value was 27 % of Pyr-Apelin-13 control. On to RRMMGMVF [SEQ ID NO 57], for which the “cAMP levels, Percent” value is -1 % of Pyr-Apelin-13 control. In the case of RRMVFQCLCG[dA] (cysteine pairing not given here) [SEQ ID NO 19], the “cAMP levels, Percent” value was 27 % of Pyr-Apelin-13 control.

On to RMMGMVFQ [SEQ ID NO 51], for which the “cAMP levels, Percent” value was 24 % of Pyr-Apelin-13 control. Take RMMGMVFQSL [SEQ ID NO 53]: the “cAMP levels, Percent” value is 6 % of Pyr-Apelin-13 control. For the molecule RRMAYQCLEG[dA] [SEQ ID NO 27], the “cAMP levels, Percent” value was 9 % of Pyr-Apelin-13 control. In the case of Ac-RRMMGMVFQSLCG[dA]-NH2 [SEQ ID NO 63], the “cAMP levels, Percent” value was 21 % of Pyr-Apelin-13 control.

RMMGMVF [SEQ ID NO 50]: the “cAMP levels, Percent” value was 8 % of Pyr-Apelin-13 control. As for RREMVYQCLCG[dA] (cysteine pairing not given here) [SEQ ID NO 25], the “cAMP levels, Percent” value is 3 % of Pyr-Apelin-13 control. As for RRMMGMVFQCLCG[dA]K(PEG12(3)) (cysteine pairing not given here) [SEQ ID NO 21], the “cAMP levels, Percent” value is 34 % of Pyr-Apelin-13 control. Consider RRMMGMVFQSL [SEQ ID NO 60], for which the “cAMP levels, Percent” value was 16 % of Pyr-Apelin-13 control. On to RRMVFQCLEG[dA] [SEQ ID NO 23], for which the “cAMP levels, Percent” value was -4 % of Pyr-Apelin-13 control.

In the case of RRMMGMVAQCLEG[dA] [SEQ ID NO 30], the “cAMP levels, Percent” value is 31 % of Pyr-Apelin-13 control. Still for that read-out and setting: the figure for RRMMGMV [SEQ ID NO 56] is -2 % of Pyr-Apelin-13 control.
